According to US20160166613A1:

Experiments:
[1] = target: Her2-CAR-FRBl2 (Her2 chimeric antigen receptor with two tandem FRBl domains fused to the carboxy terminus); experiment: cell-based or functional assay
[2] = target: CD19-CAR-FRBl2 (CD19 chimeric antigen receptor with two tandem FRBl domains, coexpressed with iCaspase9 from iC9-CAR(19).FRBl2); experiment: cell-based or functional assay
[3] = target: CD19-CAR-FRBl2 (CD19 chimeric antigen receptor with two tandem FRBl domains, coexpressed with iCaspase9 from iC9-CAR(19).FRBl2)

Chain of CD19-CAR-FRBl2 (CD19 chimeric antigen receptor with two tandem FRBl domains, coexpressed with iCaspase9 from iC9-CAR(19).FRBl2) (chain, as listed by the source mutant limits assumed): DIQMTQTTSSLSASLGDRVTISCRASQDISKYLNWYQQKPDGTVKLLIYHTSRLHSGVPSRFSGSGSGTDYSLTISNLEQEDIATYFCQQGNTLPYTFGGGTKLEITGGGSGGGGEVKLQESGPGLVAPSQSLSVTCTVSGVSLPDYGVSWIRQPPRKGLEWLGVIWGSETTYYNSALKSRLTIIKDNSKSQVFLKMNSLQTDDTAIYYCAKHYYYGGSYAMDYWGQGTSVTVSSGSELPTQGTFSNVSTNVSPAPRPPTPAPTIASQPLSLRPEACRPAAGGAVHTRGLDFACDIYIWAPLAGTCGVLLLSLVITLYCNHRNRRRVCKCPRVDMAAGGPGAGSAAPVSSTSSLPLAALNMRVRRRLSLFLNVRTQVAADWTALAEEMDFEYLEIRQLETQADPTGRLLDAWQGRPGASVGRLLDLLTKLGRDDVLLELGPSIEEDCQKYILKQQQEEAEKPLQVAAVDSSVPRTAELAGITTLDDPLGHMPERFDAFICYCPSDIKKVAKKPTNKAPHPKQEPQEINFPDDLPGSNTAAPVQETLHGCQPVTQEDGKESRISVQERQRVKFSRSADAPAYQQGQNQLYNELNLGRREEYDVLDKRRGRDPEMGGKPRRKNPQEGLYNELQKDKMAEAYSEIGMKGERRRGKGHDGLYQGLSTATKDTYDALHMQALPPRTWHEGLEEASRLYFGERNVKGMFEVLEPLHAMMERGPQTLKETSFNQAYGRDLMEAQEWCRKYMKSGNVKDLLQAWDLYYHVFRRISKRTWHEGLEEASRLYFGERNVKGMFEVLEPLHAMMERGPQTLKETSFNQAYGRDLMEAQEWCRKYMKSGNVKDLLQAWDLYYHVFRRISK
Chain of Her2-CAR-FRBl2 (Her2 chimeric antigen receptor with two tandem FRBl domains fused to the carboxy terminus) (chain, as listed by the source mutant limits assumed): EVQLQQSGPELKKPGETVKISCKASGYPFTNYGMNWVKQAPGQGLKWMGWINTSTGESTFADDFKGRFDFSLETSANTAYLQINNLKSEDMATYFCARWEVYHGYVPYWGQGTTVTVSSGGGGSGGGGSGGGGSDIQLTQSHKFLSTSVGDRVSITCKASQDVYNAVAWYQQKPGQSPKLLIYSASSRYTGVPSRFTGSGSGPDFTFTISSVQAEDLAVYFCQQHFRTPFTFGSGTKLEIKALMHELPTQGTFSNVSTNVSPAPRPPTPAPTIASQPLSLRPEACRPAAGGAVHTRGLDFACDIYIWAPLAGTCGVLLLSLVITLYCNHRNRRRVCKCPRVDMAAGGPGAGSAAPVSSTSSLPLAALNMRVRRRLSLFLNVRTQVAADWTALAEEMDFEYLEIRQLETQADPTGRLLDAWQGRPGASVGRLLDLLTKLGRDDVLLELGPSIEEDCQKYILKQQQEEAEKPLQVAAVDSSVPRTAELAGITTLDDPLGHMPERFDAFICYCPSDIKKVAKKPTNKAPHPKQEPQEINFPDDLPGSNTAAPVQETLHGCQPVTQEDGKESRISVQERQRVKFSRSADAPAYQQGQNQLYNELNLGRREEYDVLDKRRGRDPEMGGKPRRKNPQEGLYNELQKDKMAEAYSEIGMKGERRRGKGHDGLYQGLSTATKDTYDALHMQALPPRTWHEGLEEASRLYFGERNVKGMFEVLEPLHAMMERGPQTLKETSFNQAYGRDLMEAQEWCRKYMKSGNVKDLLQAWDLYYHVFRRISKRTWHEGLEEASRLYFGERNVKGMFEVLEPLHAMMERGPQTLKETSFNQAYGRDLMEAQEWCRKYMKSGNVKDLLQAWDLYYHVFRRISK

SEAP activity (constitutive SRα-SEAP reporter in transfected 293 cells, overnight with half-log dilutions of rapamycin) (% decrease of SEAP activity) [1]: 50
SEAP activity (constitutive SRα-SEAP reporter in transfected 293 cells, overnight with half-log dilutions of rapamycin) (% decrease of SEAP activity) [2]: 50
IC50 (read off the curve): concentration of the dimerizer rapamycin (not of a protein) at half-maximal loss of SEAP activity, 293 cells expressing iC9.CAR(19)-FRBl2 [3]: 1 nM
Substance: inducible Caspase-9 (FKBP12v36 - SGGGSG linker - dCaspase9) (enzyme)
